Reference: the supplement of paper PMC9112550, “Optimization of the antimicrobial peptide Bac7 by deep mutational scanning” (BMC Biology, 2022)

System: Escherichia coli TOP10
Assay: shrunken log2 fold change of peptide-encoding DNA abundance (4.5 h post-induction vs induction); higher = less antimicrobial activity (less host growth inhibition)
Conditions: time post-induction: 4.5 h; library: site-saturation at positions 5, 18, 19, 20
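Further: peptides expressed intracellularly from a pBAD plasmid library in pooled LB shake-flask culture, induced with 0.3% L-arabinose, DNA abundance read by NGS, three biological replicates, DESeq2 with apeglm shrinkage.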

Row | Sequence | shrunken log2 fold change
1 | RRIRKRPPRLPRPRPRPAGKPRP | 0.582
2 | RRIRKRPPRLPRPRPRPAGQPRP | 0.0284
3 | RRIRKRPPRLPRPRPRPAHNPRP | 0.473
4 | RRIRKRPPRLPRPRPRPAHQPRP | 0.162
5 | RRIRKRPPRLPRPRPRPAKFPRP | 0.602
6 | RRIRKRPPRLPRPRPRPAKHPRP | 0.0854
7 | RRIRKRPPRLPRPRPRPALYPRP | 0.453
8 | RRIRKRPPRLPRPRPRPANDPRP | 0.0931
9 | RRIRKRPPRLPRPRPRPAPGPRP | 0.637
10 | RRIRKRPPRLPRPRPRPAPHPRP | 0.79
11 | RRIRKRPPRLPRPRPRPAPQPRP | 0.937
12 | RRIRKRPPRLPRPRPRPAPVPRP | 0.668
13 | RRIRKRPPRLPRPRPRPAQAPRP | 0.281
14 | RRIRKRPPRLPRPRPRPAQCPRP | -0.0613
15 | RRIRKRPPRLPRPRPRPAQLPRP | 0.0282
16 | RRIRKRPPRLPRPRPRPAQPPRP | 0.764
17 | RRIRKRPPRLPRPRPRPARAPRP | 0.739
18 | RRIRKRPPRLPRPRPRPASPPRP | 0.122
19 | RRIRKRPPRLPRPRPRPAWVPRP | 0.483
20 | RRIRKRPPRLPRPRPRPAYYPRP | -0.0726
21 | RRIRKRPPRLPRPRPRPCANPRP | 0.232
22 | RRIRKRPPRLPRPRPRPCCYPRP | 0.0681
23 | RRIRKRPPRLPRPRPRPCDGPRP | 0.00408
24 | RRIRKRPPRLPRPRPRPCDQPRP | -0.0132
25 | RRIRKRPPRLPRPRPRPCEAPRP | 0.277

Row | Sequence | shrunken log2 fold change
26 | RRIRKRPPRLPRPRPRPCEPPRP | 0.553
27 | RRIRKRPPRLPRPRPRPCFPPRP | 0.123
28 | RRIRKRPPRLPRPRPRPCFWPRP | 0.42
29 | RRIRKRPPRLPRPRPRPCGMPRP | 0.858
30 | RRIRKRPPRLPRPRPRPCIFPRP | -0.0101
31 | RRIRKRPPRLPRPRPRPCIHPRP | -0.124
32 | RRIRKRPPRLPRPRPRPCKCPRP | 0.0183
33 | RRIRKRPPRLPRPRPRPCKEPRP | -0.0743
34 | RRIRKRPPRLPRPRPRPCKFPRP | 0.142
35 | RRIRKRPPRLPRPRPRPCKLPRP | -0.144
36 | RRIRKRPPRLPRPRPRPCLCPRP | -0.138
37 | RRIRKRPPRLPRPRPRPCNAPRP | -0.0429
38 | RRIRKRPPRLPRPRPRPCNDPRP | -0.0241
39 | RRIRKRPPRLPRPRPRPCNNPRP | -0.474
40 | RRIRKRPPRLPRPRPRPCQPPRP | 0.227
41 | RRIRKRPPRLPRPRPRPCRCPRP | 0.0976
42 | RRIRKRPPRLPRPRPRPCRSPRP | -0.0126
43 | RRIRKRPPRLPRPRPRPCTMPRP | -0.271
44 | RRIRKRPPRLPRPRPRPCTWPRP | -0.15
45 | RRIRKRPPRLPRPRPRPCVRPRP | -0.215
46 | RRIRKRPPRLPRPRPRPCWCPRP | -0.0214
47 | RRIRKRPPRLPRPRPRPCYGPRP | -0.237
48 | RRIRKRPPRLPRPRPRPDALPRP | 0.132
49 | RRIRKRPPRLPRPRPRPDARPRP | -0.0173
50 | RRIRKRPPRLPRPRPRPDCPPRP | 0.178

Row | Sequence | shrunken log2 fold change
51 | RRIRKRPPRLPRPRPRPDDKPRP | 0.107
52 | RRIRKRPPRLPRPRPRPDENPRP | 1.42
53 | RRIRKRPPRLPRPRPRPDFEPRP | 0.0238
54 | RRIRKRPPRLPRPRPRPDFYPRP | -0.0302
55 | RRIRKRPPRLPRPRPRPDGMPRP | -0.00135
56 | RRIRKRPPRLPRPRPRPDGQPRP | 0.0566
57 | RRIRKRPPRLPRPRPRPDINPRP | 0.193
58 | RRIRKRPPRLPRPRPRPDIQPRP | 0.867
59 | RRIRKRPPRLPRPRPRPDIWPRP | 0.211
60 | RRIRKRPPRLPRPRPRPDMMPRP | 1.43
61 | RRIRKRPPRLPRPRPRPDNWPRP | 0.235
62 | RRIRKRPPRLPRPRPRPDPKPRP | 0.549
63 | RRIRKRPPRLPRPRPRPDRFPRP | -0.0614
64 | RRIRKRPPRLPRPRPRPDRQPRP | 0.204
65 | RRIRKRPPRLPRPRPRPDSCPRP | -0.0303
66 | RRIRKRPPRLPRPRPRPDTHPRP | 0.234
67 | RRIRKRPPRLPRPRPRPDVGPRP | 0.0262
68 | RRIRKRPPRLPRPRPRPDWKPRP | -0.0149
69 | RRIRKRPPRLPRPRPRPDWRPRP | 0.499
70 | RRIRKRPPRLPRPRPRPEEHPRP | 2.61
71 | RRIRKRPPRLPRPRPRPEEKPRP | 0.0431
72 | RRIRKRPPRLPRPRPRPEEWPRP | -0.0212
73 | RRIRKRPPRLPRPRPRPEFHPRP | 0.131
74 | RRIRKRPPRLPRPRPRPEFSPRP | 0.397
75 | RRIRKRPPRLPRPRPRPEGFPRP | 0.802

Row | Sequence | shrunken log2 fold change
76 | RRIRKRPPRLPRPRPRPEIEPRP | 2.58
77 | RRIRKRPPRLPRPRPRPELQPRP | 0.307
78 | RRIRKRPPRLPRPRPRPELYPRP | 0.0137
79 | RRIRKRPPRLPRPRPRPEMCPRP | 1.1
80 | RRIRKRPPRLPRPRPRPENKPRP | 0.528
81 | RRIRKRPPRLPRPRPRPERDPRP | 0.621
82 | RRIRKRPPRLPRPRPRPERMPRP | 0.0818
83 | RRIRKRPPRLPRPRPRPEVPPRP | 0.539
84 | RRIRKRPPRLPRPRPRPEVVPRP | 0.016
85 | RRIRKRPPRLPRPRPRPEWPPRP | 0.273
86 | RRIRKRPPRLPRPRPRPEYLPRP | -0.0659
87 | RRIRKRPPRLPRPRPRPFAEPRP | 0.266
88 | RRIRKRPPRLPRPRPRPFAMPRP | 0.359
89 | RRIRKRPPRLPRPRPRPFCFPRP | 1.24
90 | RRIRKRPPRLPRPRPRPFDPPRP | -0.145
91 | RRIRKRPPRLPRPRPRPFEEPRP | 0.148
92 | RRIRKRPPRLPRPRPRPFEKPRP | -0.045
93 | RRIRKRPPRLPRPRPRPFEQPRP | 0.0483
94 | RRIRKRPPRLPRPRPRPFESPRP | 0.0457
95 | RRIRKRPPRLPRPRPRPFGCPRP | 0.0495
96 | RRIRKRPPRLPRPRPRPFGFPRP | -0.137
97 | RRIRKRPPRLPRPRPRPFHEPRP | -0.154
98 | RRIRKRPPRLPRPRPRPFHLPRP | 0.0215
99 | RRIRKRPPRLPRPRPRPFKIPRP | 0.00571
100 | RRIRKRPPRLPRPRPRPFKSPRP | -0.294

Row | Sequence | shrunken log2 fold change
101 | RRIRKRPPRLPRPRPRPFKTPRP | 0.427
102 | RRIRKRPPRLPRPRPRPFKYPRP | -0.517
103 | RRIRKRPPRLPRPRPRPFLFPRP | -0.0622
104 | RRIRKRPPRLPRPRPRPFMGPRP | 0.00448
105 | RRIRKRPPRLPRPRPRPFMNPRP | -0.0366
106 | RRIRKRPPRLPRPRPRPFNCPRP | 0.0153
107 | RRIRKRPPRLPRPRPRPFQPPRP | 0.0366
108 | RRIRKRPPRLPRPRPRPFTGPRP | 0.0735
109 | RRIRKRPPRLPRPRPRPFVEPRP | 0.0241
110 | RRIRKRPPRLPRPRPRPFVTPRP | -0.0435
111 | RRIRKRPPRLPRPRPRPFWKPRP | 0.0342
112 | RRIRKRPPRLPRPRPRPFYIPRP | -0.44
113 | RRIRKRPPRLPRPRPRPFYSPRP | 0.00762
114 | RRIRKRPPRLPRPRPRPFYVPRP | -0.0997
115 | RRIRKRPPRLPRPRPRPGAPPRP | 0.85
116 | RRIRKRPPRLPRPRPRPGCIPRP | 0.424
117 | RRIRKRPPRLPRPRPRPGCLPRP | 0.646
118 | RRIRKRPPRLPRPRPRPGDFPRP | 0.18
119 | RRIRKRPPRLPRPRPRPGDHPRP | 0.014
120 | RRIRKRPPRLPRPRPRPGDKPRP | 0.0976
121 | RRIRKRPPRLPRPRPRPGDNPRP | 0.046
122 | RRIRKRPPRLPRPRPRPGEKPRP | 0.015
123 | RRIRKRPPRLPRPRPRPGGCPRP | 0.809
124 | RRIRKRPPRLPRPRPRPGGHPRP | 0.0505
125 | RRIRKRPPRLPRPRPRPGGQPRP | 0.108

Row | Sequence | shrunken log2 fold change
126 | RRIRKRPPRLPRPRPRPGHTPRP | 0.272
127 | RRIRKRPPRLPRPRPRPGIYPRP | 0.107
128 | RRIRKRPPRLPRPRPRPGKDPRP | 0.173
129 | RRIRKRPPRLPRPRPRPGMHPRP | 0.213
130 | RRIRKRPPRLPRPRPRPGMKPRP | 0.516
131 | RRIRKRPPRLPRPRPRPGNTPRP | -0.0331
132 | RRIRKRPPRLPRPRPRPGPAPRP | 1.05
133 | RRIRKRPPRLPRPRPRPGPEPRP | 1.1
134 | RRIRKRPPRLPRPRPRPGPWPRP | 0.63
135 | RRIRKRPPRLPRPRPRPGQQPRP | 0.0114
136 | RRIRKRPPRLPRPRPRPGSWPRP | 0.571
137 | RRIRKRPPRLPRPRPRPGSYPRP | -0.00588
138 | RRIRKRPPRLPRPRPRPGTMPRP | 0.0526
139 | RRIRKRPPRLPRPRPRPGTWPRP | 0.315
140 | RRIRKRPPRLPRPRPRPGVNPRP | 0.213
141 | RRIRKRPPRLPRPRPRPGWTPRP | 0.438
142 | RRIRKRPPRLPRPRPRPGYKPRP | 0.236
143 | RRIRKRPPRLPRPRPRPHAKPRP | 0.226
144 | RRIRKRPPRLPRPRPRPHAWPRP | 0.897
145 | RRIRKRPPRLPRPRPRPHCIPRP | -0.165
146 | RRIRKRPPRLPRPRPRPHFAPRP | 0.336
147 | RRIRKRPPRLPRPRPRPHFYPRP | -0.0034
148 | RRIRKRPPRLPRPRPRPHGNPRP | -0.0306
149 | RRIRKRPPRLPRPRPRPHHHPRP | -0.208
150 | RRIRKRPPRLPRPRPRPHHIPRP | -0.165
